US20190330331A1 (BLOOM DIAGNOSTICS, published 2019)

Molecular target: T1, recombinant yeast-expressed His-tagged full-length AMH comprising amino acids 26-560 of human AMH (human, UniProt P03971 26-560)
T1 construct: Bought protein (Antikörper Online, ABIN2524475); also called recombinant AMH; human Anti-Müllerian hormone
T1 sequence: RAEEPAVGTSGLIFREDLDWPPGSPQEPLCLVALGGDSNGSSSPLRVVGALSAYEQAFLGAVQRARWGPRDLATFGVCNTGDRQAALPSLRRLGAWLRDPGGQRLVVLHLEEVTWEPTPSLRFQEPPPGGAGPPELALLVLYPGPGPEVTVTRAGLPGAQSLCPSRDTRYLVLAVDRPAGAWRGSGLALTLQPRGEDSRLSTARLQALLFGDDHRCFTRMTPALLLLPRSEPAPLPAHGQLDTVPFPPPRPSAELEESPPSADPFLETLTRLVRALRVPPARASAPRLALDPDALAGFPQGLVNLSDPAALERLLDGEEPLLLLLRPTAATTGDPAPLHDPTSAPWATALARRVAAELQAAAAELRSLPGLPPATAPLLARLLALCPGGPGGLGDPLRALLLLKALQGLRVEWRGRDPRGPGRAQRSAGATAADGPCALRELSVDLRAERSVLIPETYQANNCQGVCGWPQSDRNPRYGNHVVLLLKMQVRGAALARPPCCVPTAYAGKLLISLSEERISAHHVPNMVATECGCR
Assay: SPR (Biacore T200), AMH amine-coupled to the chip, antibody as analyte, bivalent-analyte model
Method: Surface-plasmon-resonance (SPR) measurements were performed using a Biacore T200 facility, control software version 2.0, and Series S sensor-chips carboxymethyl dextran chip type 5 (CMS, GE Healthcare Bio-Sciences AB, Uppsala, Sweden). The system was operating at 25° C. in running buffer HBSP (10 mmol/L 4-(2-hydroxyethyl)piperazine-1-ethanesulfonic acid (Hepes), 150 mmol/L NaCl., 0.05% Tween 20, pH 7.4). AMH was transferred to 10 mmol/L sodium acetate buffer pH 4.0 by passing it through a NAPS column (GE Healthcare) before immobilization by amine coupling (Biacore Sensor Surface Handbook). The carboxyl groups on the chip were activated with an mixture containing 200 mM 1-ethyl-3-(3-dimethylaminopropyl)-carbodiimide hydrochloride (EDC, Sigma-Aldrich) and 50 mM N hydroxysuccinimide (NHS, Fluka) for 180 s. AMH was then injected for 150 s at a concentration of 2.5 μg/mL in, at a flow of 10 μL/min and […]. Approximately 100 resonance units (RU) of AMH were covalently bound to the flow cell. Unreacted NHS esters were blocked with 1 mol/L ethanolamine pH 8.5 for 7 min. […] Association and dissociation rates and the binding constants of the antibodies were determined using the bivalent-analyte-binding model of the Biacore evaluation software (version 2.0). […]

B1: G170-FC5 (antibody, V domains shown)
VH: EVKLVESGGGLVKPGGSLKLSCAASGFIFSTYTMSWVRQTPGKRLEWVATISSGGSYTYYPDSVKGRFTISRDNAKNTLYLQMSSLRSEDTAMYYCTRHGSDYRYDGFDYWGQGTTLTVSS
VL: DILMTQSPASLSVSVGETVTITCRASENIYSNLAWYQQKQGKSPQLLVYAATNLADGVPSRFSGSGSGTQYSLKINSLQSEDFGSYYCQHFWGTPFTFGSGTKLEIK
notes: kappa primers were used for the VL; also called anti-AMH G170-FC5; anti-AMH antibody
Q: B1 was tested. Which Kd did it give?
A: Its Kd is about 1 nM.
